{
  "source": "patent US11858993B2",
  "about": "“Multi-specific antibodies with affinity for human A33 antigen and DOTA metal complex and uses thereof” (Memorial Sloan Kettering Cancer Center, priority 2015, dated 2024)",
  "key": {"SW1222 tumor [1]": {"test_system": "SW1222 tumor", "experiment": "PRIT optimization biodistribution (huA33-C825 dose, clearing agent dose), 24 h p.i. of ^177Lu-DOTA-Bn", "details": "for tumor-to-organ ratio, kidney: 24 h p.i.", "protocol": "Next, additional biodistribution experiments were performed to optimize the CA dose during PRIT with 0.25 mg (1.19 nmol) as the huA33-C825 dose. Groups of tumor-bearing mice (n=3 to 4 per group) with were injected with huA33-C825, followed 24 h later with either: saline (i.e. vehicle), 2.4% (w/w, with respect to 0.25 mg huA33-C825 dose), 5% (w/w), 10% (w/w), or 25% (w/w) CA doses (0-62.5 μg/mouse). After an additional 4 h, mice were injected with 5.6 MBq of ^177Lu-DOTA-Bn, and sacrificed 24 h later for biodistribution analysis.\nNext, ^177Lu-DOTA-Bn dose titration studies were performed using the optimized PRIT doses for huA33-C825 and CA. For ^177Lu-DOTA-Bn dose titration studies, the ^177Lu-activity biodistribution data for tumor and critical select tissues (blood, liver, spleen, and kidneys) was compared between ^177Lu-DOTA-Bn dose groups as both % ID/g and absolute uptake (kBq/g; see FIGS. 4A, 4B). Finally, a single-time point biodistribution experiment at 24 h p.i. of ^131I-trace labeled huA33-C825 (0.39-0.40 MBq with cold huA33-C825 added to 1.19 nmol) was performed in SW1222-tumor bearing mice to estimate the absolute antibody uptake of huA33-C825 in tumor (as pmol/g) during PRIT.\nAll animal experiments were approved by the Institutional Animal Care and Use Committee of Memorial Sloan Kettering Cancer Center and institutional guidelines for the proper and humane use of animals in research were followed. Athymic nu/nu female mice (6-8 weeks old; Harlan Sprague Dawley) were allowed to acclimate in the vivarium for at least one week. […] All reagents were given intravenously (i.v.) via the lateral tail vein. […] In addition, huA33-C825 was trace radiolabeled with I-131 to estimate tumor uptake during PRIT."}, "[2]": {"test_system": "kidney, bone marrow, liver, and spleen", "experiment": "Toxicity: weight, appearance and anatomic pathology after PRIT", "assay_type": "in vivo", "details": "PRIT-treated SW1222 mice, dual-cycle; out to 140 days where stated", "protocol": "For dual-cycle PRIT given at 10 and 17 days post tumor inoculation, there is marked response at all dose levels with complete responses observed in a dose dependent manner. […] Toxicity was determined by monitoring weight and overall appearance at least three times per week, as well as histopathologic assessment of liver, kidney, spleen and bone marrow by MSKCC Lab of Comparative Pathology.\nFor 3/3 mice, the kidney, bone marrow, and liver were normal."}, "[3]": {"test_system": "A33-positive SW1222 xenografts", "experiment": "Dual-cycle PRIT therapy study", "details": "for Complete Response / Cures at 40 d post-treatment / absorbed radiation dose, Blood / absorbed radiation dose, Kidney / absorbed radiation dose, Tumor: Dual-cycle", "text": "In a second therapy study, dual-cycle huA33-C825 PRIT treatment was investigated.\nThe following definitions were used to describe treatment response: a complete response (CR) is defined as tumor shrinkage to <100 mm^3. […] Excessive tumor burden is defined as >2000 mm^3."}, "BSA-(Y)-DOTA-Bn": {"test_system": "BSA-(Y)-DOTA-Bn", "experiment": "Biacore T100 surface plasmon resonance, binding to BSA-(Y)-DOTA-Bn", "protocol": "Binding affinity was measured by Biacore T100.\nBiacore T100 Biosensor, CM5 sensor chip, and related reagents were purchased from GE Healthcare. Recombinant human A33 protein was purchased from Novoprotein. A BSA-(Y)-DOTA-Bn conjugate was prepared as described (Cheal et al., supra). A33 and DOTA antigens were immobilized using the Amino Coupling kit (GE Healthcare). Purified bispecific antibodies and control antibodies were analyzed, and data were fit to a bivalent analyte model using the Biacore T100 evaluation software as described (Cheal et al., supra)."}, "SW1222 tumor [4]": {"test_system": "SW1222 tumor", "experiment": "^177Lu-DOTA-Bn dose titration, tumor uptake and saturation during PRIT", "assay_type": "in vivo, mice", "protocol": "FIGS. 4A-4D show exemplary tumor uptake of ^177Lu-DOTA-Bn at 24 hours post injection as a function of radioactivity in the treatment of mice bearing a human colon cancer xenograft (SW1222); (FIG. 4A) uptake of amounts of ^177Lu-DOTA-Bn in various tissues. (FIG. 4B) Uptake of amounts of ^177Lu-DOTA-Bn in SW1222 tumors; (FIG. 4C) activity of ^177Lu-DOTA-Bn in SW1222 tumors and kidneys 24 hours post injection per amount of injected ^177Lu-DOTA-Bn; (FIG. 4D) pmoles of ^177Lu-DOTA-Bn binding in the tumor 24 hours post injection per amount of injected ^177Lu-DOTA-Bn. Saturation was achieved after approximately 40 MBq of injected activity.\nAs described herein, the present inventors provide an improved multi-step PRIT method in immunocompromised mice bearing s.c. A33-positive human colorectal tumors (SW1222) using a bispecific antibody termed huA33-C825. Such methodology includes i.v. injection of various doses of huA33-C825 and a dextran-based CA, followed with injection of ^177Lu-DOTA-Bn theranostic (i.e., diagnostic and therapeutic) hapten for simultaneous scintigraphic imaging and radioimmunotherapy. The present invention specifically describes biodistribution studies that provide optimum huA33-C825 and CA doses, followed with a series of additional biodistribution studies to determine the tumor uptake as a function of ^177Lu-DOTA-Bn doses (˜2.0-111.0 MBq) to serve as a practical and dosimetric guide for PRIT studies. Also, as described herein, tumors and kidneys were excised at 24 hours post injection of ^177Lu-DOTA-Bn at three different dose levels (11.1, 55.0, and 111.0 MBq) to examine ex vivo the ^177Lu-activity microdistribution via autoradiography, as well as correlate the ^177Lu-activity with the xenograft and tissue morphology via hematoxylin and eosin staining. Further, the estimated absolute SW1222 tumor uptake of huA33-C825 24 h p.i. of 0.25 mg/mouse based on radioactive tracer studies with ^131I-huA33-C825 was ˜90 pmol/g of tumor."}, "[5]": {"details": "dual-cycle PRIT, 66.6 or 111 MBq ^177Lu-DOTA-Bn pooled"}, "[6]": {"details": "two cycles of PRIT+55.5 (total 111.0 MBq)"}, "[7]": {"details": "Biacore T100, bivalent analyte model"}},
  "note": "Values joined by “and” are separate entries in the source; they are usually repeats but may differ in a detail not shown here. Equal entries are not always repeated. “Also recorded” adds a separate entry of the source.",
  "data": [
    {"substance": "huA33-C825: bispecific antibody: humanized A33 IgG1 with murine C825 anti-DOTA-Bn scFv linked to the light chain C-terminus", "values": [
      {"measurement": "tumor-to-organ ratio, kidney", "setting": "SW1222 tumor [1]; 65 μg CA dose level (25% (w/w))", "value": "18.4±13.4"},
      {"measurement": "reduction in ^177Lu-DOTA-Bn tumor uptake compared with PRIT with saline", "setting": "SW1222 tumor [1]; mouse, in vivo", "value": "~50", "unit": "%"},
      {"measurement": "tumor-to-organ ratio, blood", "setting": "SW1222 tumor [1]; mouse, in vivo", "value": "2.2±0.4"},
      {"measurement": "tumor-to-organ ratio, muscle", "setting": "SW1222 tumor [1]; mouse, in vivo", "value": "23.2±3.8"},
      {"measurement": "tumor-to-organ ratio, kidney", "setting": "SW1222 tumor [1]; saline (no CA)", "value": "4.9±0.6"},
      {"measurement": "toxicity (clinical, histologic)", "setting": "[2]", "value": "no clinical or histologic evidence of radiation induced toxicities; also recorded: no toxicity was observed; also recorded: no detectable toxicity"},
      {"measurement": "Complete Response", "setting": "[3]; + 11.1 MBq (×2), 22.2 MBq", "value": "2/5"},
      {"measurement": "Cures at 40 d post-treatment", "setting": "[3]; + 11.1 MBq (×2), 22.2 MBq", "value": "1/5"},
      {"measurement": "absorbed radiation dose, Blood", "setting": "[3]; + 11.1 MBq (×2), 22.2 MBq", "value": 0.2, "unit": "Gy"},
      {"measurement": "absorbed radiation dose, Kidney", "setting": "[3]; + 11.1 MBq (×2), 22.2 MBq", "value": 1.2, "unit": "Gy"},
      {"measurement": "absorbed radiation dose, Tumor", "setting": "[3]; + 11.1 MBq (×2), 22.2 MBq", "value": 14.6, "unit": "Gy"},
      {"measurement": "Complete Response", "setting": "[3]; + 33.3 MBq (×2), 66.6 MBq", "value": "5/5"},
      {"measurement": "Cures at 40 d post-treatment", "setting": "[3]; + 33.3 MBq (×2), 66.6 MBq", "value": "2/5"},
      {"measurement": "absorbed radiation dose, Blood", "setting": "[3]; + 33.3 MBq (×2), 66.6 MBq", "value": 0.6, "unit": "Gy"},
      {"measurement": "absorbed radiation dose, Kidney", "setting": "[3]; + 33.3 MBq (×2), 66.6 MBq", "value": 3.5, "unit": "Gy"},
      {"measurement": "absorbed radiation dose, Tumor", "setting": "[3]; + 33.3 MBq (×2), 66.6 MBq", "value": 43.8, "unit": "Gy"},
      {"measurement": "Complete Response", "setting": "[3]; + 55.5 MBq (×2), 111.0 MBq", "value": "4/4"},
      {"measurement": "Cures at 40 d post-treatment", "setting": "[3]; + 55.5 MBq (×2), 111.0 MBq", "value": "2/4"},
      {"measurement": "absorbed radiation dose, Blood", "setting": "[3]; + 55.5 MBq (×2), 111.0 MBq", "value": 1.0, "unit": "Gy"},
      {"measurement": "absorbed radiation dose, Kidney", "setting": "[3]; + 55.5 MBq (×2), 111.0 MBq", "value": 5.9, "unit": "Gy"},
      {"measurement": "absorbed radiation dose, Tumor", "setting": "[3]; + 55.5 MBq (×2), 111.0 MBq", "value": 73.0, "unit": "Gy"},
      {"measurement": "alive without recurrence at more than 140 d", "setting": "[3]; [5]", "value": "2/9"},
      {"measurement": "complete responses", "setting": "[3]; [5]", "value": "9/9"},
      {"measurement": "complete response, share of test subjects", "setting": "[3]; dual-cycle dosing", "value": "approximately 80%"},
      {"measurement": "time to reach 500 mm^3 in recurrent tumors (individual mice)", "setting": "[3]; [6]", "value": "34 days and 45 days and 42 days"},
      {"measurement": "tumor size at time of sacrifice (single mouse)", "setting": "[3]; [6]", "value": 44, "unit": "mm^3"},
      {"measurement": "koff", "setting": "BSA-(Y)-DOTA-Bn; [7]", "value": 0.00022, "unit": "s⁻¹"},
      {"measurement": "kon", "setting": "BSA-(Y)-DOTA-Bn; [7]", "value": 19000, "unit": "M⁻¹ s⁻¹"},
      {"measurement": "Kd", "setting": "BSA-(Y)-DOTA-Bn; FIG. 2B", "value": 11.6, "unit": "nM"},
      {"measurement": "estimated maximum occupancy (fraction)", "setting": "SW1222 tumor [4]; 11 pmol ^177Lu-DOTA-Bn/180 pmol", "value": 0.061},
      {"measurement": "peak tumor uptake", "setting": "SW1222 tumor [4]; PRIT+55.5 ^177Lu-DOTA-Bn per cycle", "value": 3, "unit": "% ID/g"},
      {"measurement": "injected activity of ^177Lu-DOTA-Bn after which saturation of tumor binding was achieved", "setting": "SW1222 tumor [4]; SW1222 tumors, 24 hours post injection", "value": "approximately 40 MBq"},
      {"measurement": "^177Lu-DOTA-Bn bound in tumor used for maximum occupancy", "setting": "SW1222 tumor [4]; mouse, in vivo", "value": 11, "unit": "pmol"},
      {"measurement": "maximum ^177Lu-DOTA-Bn binding capacity", "setting": "SW1222 tumor [4]; two ^177Lu-DOTA-Bn per huA33-C825 molecule", "value": 180, "unit": "pmol/g tumor"}
    ]}
  ]
}
